Consider 12 molecules from patent US20100254992A1 (published 2010).

Changes are numbered by the printed parent chain.

The labels stand for the following.
T1: human Eotaxin 2 (human, UniProt O00175 27-104, limits assumed)
T1 sequence (looked up): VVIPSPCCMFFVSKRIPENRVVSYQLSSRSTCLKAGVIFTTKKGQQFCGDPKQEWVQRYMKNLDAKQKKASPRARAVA

T2: human MCP-2 (human, UniProt P80075 24-99)
T2 construct: also called CCL8
T2 sequence (looked up): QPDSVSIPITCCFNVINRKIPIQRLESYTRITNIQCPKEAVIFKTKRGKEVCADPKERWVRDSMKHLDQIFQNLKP

T3: human Eotaxin 3 (human, UniProt Q9Y258 24-94)
T3 sequence (looked up): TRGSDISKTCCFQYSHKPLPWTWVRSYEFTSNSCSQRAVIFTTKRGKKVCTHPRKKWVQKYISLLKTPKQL

B1: MOR03878 IgG1 (antibody, V domains shown)
VH: QVELVQSGAEVKKPGSSVKVSCKASGGTFSSYGISWVRQAPGQGLEWMGAINPLAGHTHYAQKFQGRVTITADESTSTAYMELSSLRSEDTAVYYCARYDGIYGELDFWGQGTLVTVSS
VL: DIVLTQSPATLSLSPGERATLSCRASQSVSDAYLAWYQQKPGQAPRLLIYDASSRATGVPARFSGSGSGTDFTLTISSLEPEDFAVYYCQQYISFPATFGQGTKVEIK
notes: Human IgG1; also called MOR3878 IgG1; MOR3878k IgG
B2: MOR03899 IgG1 (antibody, V domains shown)
VH: B1 VH
VL: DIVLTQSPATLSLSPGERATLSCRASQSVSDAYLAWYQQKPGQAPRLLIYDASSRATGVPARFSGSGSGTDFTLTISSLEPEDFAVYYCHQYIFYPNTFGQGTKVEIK
notes: Human IgG1; also called MOR3899 IgG1; MOR3899k IgG
B3: MOR03850 IgG1 (antibody, V domains shown)
VH: B1 VH
VL: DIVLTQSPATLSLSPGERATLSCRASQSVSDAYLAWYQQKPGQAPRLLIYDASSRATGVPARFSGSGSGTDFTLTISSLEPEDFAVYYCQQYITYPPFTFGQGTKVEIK
notes: Human IgG1; also called MOR3850 IgG1; MOR3850k IgG
B4: MOR03781 IgG1 (antibody, V domains shown)
VH: B1 VH with A50G, N52I, L54I, A55F, H57T, T58A, H59N
VL: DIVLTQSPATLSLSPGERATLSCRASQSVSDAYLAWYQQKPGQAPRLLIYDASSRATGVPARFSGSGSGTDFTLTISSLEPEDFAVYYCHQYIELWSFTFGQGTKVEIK
notes: Human IgG1; also called MOR3781 IgG1; MOR3781k IgG
B5: MOR03878 Fab (Fab, V domains shown)
VH: B1 VH
VL: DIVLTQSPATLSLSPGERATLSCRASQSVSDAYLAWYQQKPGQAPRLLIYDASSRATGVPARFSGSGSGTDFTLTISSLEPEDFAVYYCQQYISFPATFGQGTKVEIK
notes: MOR03471 cross-clone (3822 × 3794); Fab with C-terminal FLAG and 6x His tags; also called MOR3878; MOR3878k
B6: MOR03781 Fab (Fab, V domains shown)
VH: B1 VH with A50G, N52I, L54I, A55F, H57T, T58A, H59N
VL: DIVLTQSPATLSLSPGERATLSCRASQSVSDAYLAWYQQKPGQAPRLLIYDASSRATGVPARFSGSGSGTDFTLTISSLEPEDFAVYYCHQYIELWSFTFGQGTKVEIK
notes: MOR03471 derivative (L-CDR3); Fab with C-terminal FLAG and 6x His tags; also called MOR3781; MOR3781k
B7: MOR03850 Fab (Fab, V domains shown)
VH: B1 VH
VL: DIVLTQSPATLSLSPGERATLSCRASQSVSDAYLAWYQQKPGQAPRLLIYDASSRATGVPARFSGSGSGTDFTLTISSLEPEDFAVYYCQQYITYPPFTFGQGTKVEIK
notes: MOR03471 cross-clone (3822 × 3819); Fab with C-terminal FLAG and 6x His tags; also called MOR3850; MOR3850k
B8: MOR03899 Fab (Fab, V domains shown)
VH: B1 VH
VL: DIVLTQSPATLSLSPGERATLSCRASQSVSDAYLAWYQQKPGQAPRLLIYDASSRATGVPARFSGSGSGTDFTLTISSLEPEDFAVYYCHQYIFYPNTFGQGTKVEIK
notes: MOR03471 cross-clone (3822 × 3876); Fab with C-terminal FLAG and 6x His tags; also called MOR3899; MOR3899k
B9: MOR03849 IgG (antibody, V domains shown)
VH: B1 VH
VL: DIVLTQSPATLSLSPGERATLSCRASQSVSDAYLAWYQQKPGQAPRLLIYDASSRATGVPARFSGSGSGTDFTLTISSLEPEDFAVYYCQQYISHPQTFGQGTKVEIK
B10: MOR03885 IgG (antibody, V domains shown)
VH: B1 VH
VL: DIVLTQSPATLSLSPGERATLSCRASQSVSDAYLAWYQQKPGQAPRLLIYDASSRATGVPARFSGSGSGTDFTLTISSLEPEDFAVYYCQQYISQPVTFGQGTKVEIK
B11: CNTO 888 (antibody, V domains shown)
VH: B1 VH with E3Q, A50G, N52I, L54I, A55F, H57T, T58A, H59N
VL: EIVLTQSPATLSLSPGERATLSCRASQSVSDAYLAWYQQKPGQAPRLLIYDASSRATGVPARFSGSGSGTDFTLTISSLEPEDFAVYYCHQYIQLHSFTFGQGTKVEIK
notes: Fully human IgG1 kappa
B12: MOR03754 Fab (Fab, V domains shown)
VH: QVQLVESGGGLVQPGGSLRLSCAASGFTFRSYGMSWVRQAPGKGLEWVSSIEHKWSGYATTYAASVKGRFTISRDNSKNTLYLQMNSLRAEDTAVYYCARFEFTPWTYFDFWGQGTLVTVSS
VL: DIELTQPPSVSVAPGQTARISCSGDNLGKKYVYWYQQKPGQAPVLVIYDDDNRPSGIPERFSGSNSGNTATLTISGTQAEDEADYYCQSYTAQSSASFGGGTKLTVL

T6 sequence (P80098 24-99 limits assumed): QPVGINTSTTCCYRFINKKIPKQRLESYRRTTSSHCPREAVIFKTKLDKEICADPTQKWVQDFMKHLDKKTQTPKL

The target of one experiment is T4, cynomolgus monkey MCP-1 (cynomolgus monkey, UniProt P61274 24-99).
T4 construct: also called cyno MCP-1; cyno CCL-2
T4 sequence (P61274 24-99 limits assumed): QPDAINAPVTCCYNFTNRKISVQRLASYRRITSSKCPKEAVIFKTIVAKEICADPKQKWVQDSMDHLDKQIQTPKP
Nature of the experiment: BioVeris solution equilibrium titration, IgG1, cyno MCP-1. As for the experimental part: (§1) Affinity determination in solution was basically performed as described in the literature (Friguet et al., 1985). In order to improve the sensitivity and accuracy of the SET method, it was transferred from classical ELISA to ECL based BioVeris technology (Haenel et al., 2005, accepted for publication in Analytical Biochemistry). 1 mg/ml goat-anti-human (Fab)₂ or goat-anti-mouse IgG, Fc fragment specific antibodies (Jackson Immuno Research) were labelled with BV-tag™ NHS-Ester (Bioveris Europe, Witney, Oxfordshire, UK) according to manufacturer's instructions. The experiments were carried out in polypropylene microtiter plates and PBS pH 7.4 with 0.5% BSA and 0.02% Tween 20 as assay buffer. Unlabeled antigen was diluted in 4ⁿ series: For human and cyno MCP-1 a concentration range of 10 pM to 40 nM and for cross-reactivity controls (Eotaxin and MCP-2) a concentration range of 40 pM to 160 nM was chosen. Wells without antigen were used to determine Smax values. After addition of 100 pM Fab or IgG (final concentration in 75 μL final volume), the mixture was incubated for 2 hours at RT. Subsequently a mixture of 25 μl Dynabeads (0.4 mg/ml M-280 Streptavidin, DYNAL, Hamburg), coated with 0.25 μg/ml biotinylated MCP-1 (K69) and BV-tag labeled detection antibody in a final dilution of 1:4000 for anti-human Fab or 1:2000 for anti-mouse IgG were added per well.
(§2) Solution Equilibrium Titration Using BioVeris. As an alternative method for sensitive KD determinations, the solution equilibrium titration (SET) using BioVeris technology was performed. Monovalent dissociation constants were calculated by means of appropriate fit models for Fab and IgG. This method was suitable for affinity measurement and cross-reactivity studies. All selected 16 binders were analyzed by solution equilibrium titration (SET) using BioVeris (Table 5 and Table 6) and these affinity values were regarded as the final affinity values.
Regarding B1, the affinity, expressed as Kd, was 0.23 nM.
Same read-out and setting: the result for B2 reads 0.36 nM; that for B3, 0.021 nM; that for B4, 0.016 nM.

Another experiment deals with T4, cynomolgus monkey MCP-1. In words: BioVeris, Cyno MCP-1 Kd. Here is the method:
as §1, §2
On to B5, for which binding was put at a Kd of 0.32 nM.
The same measure, in the same setting: the result for B1 reads 0.23 nM; that for B2, 0.36 nM; that for B6, 0.01 nM.
For the molecule B7, the affinity, expressed as Kd, was 0.04 nM.
On the same count and under the same terms, the figure for B3 is 0.01 nM.
Still for that read-out and setting: the figure for B4 is 0.02 nM.
Still for that read-out and setting: the figure for B8 is 0.49 nM.

In another experiment the target is T5, human Eotaxin 1 (human, UniProt P51671 24-97). In words: Biacore, IgG capture mode. For orientation: SPR reads the build-up and loss of mass on a sensor chip optically.
T5 sequence (P51671 24-97 limits assumed): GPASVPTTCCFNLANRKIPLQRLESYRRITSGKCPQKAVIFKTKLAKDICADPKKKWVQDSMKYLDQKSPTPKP
With B9, the binding result is “no binding (tested: 100 nM)”.
Same read-out and setting: the entry for B10 is “no binding (tested: 100 nM)”; for B4 it is “no binding (tested: 100 nM)”.

In another experiment the target is T1, human Eotaxin 2. In words: Biacore, IgG capture mode.
Regarding B9, the binding result is “no binding (tested: 100 nM)”.
As for B1, the binding result is on record as “no binding (tested: 100 nM)”.
The same measure, in the same setting: the entry for B2 is “no binding (tested: 100 nM)”; for B10 it is “no binding (tested: 100 nM)”.
The same measure, in the same setting: the result for B3 reads “no binding (tested: 100 nM)”.
The same measure, in the same setting: the entry for B4 is “no binding (tested: 100 nM)”.

Another experiment concerns the target T6, human MCP-3 (human, UniProt P80098 24-99).
T6 construct: also called CCL7
Nature of the experiment: Biacore, IgG capture mode.
In the case of B9, the binding result was “no binding (tested: 100 nM)”.
In the case of B1, the binding result is “no binding (tested: 100 nM)”.
Still for that read-out and setting: the result for B2 reads “no binding (tested: 100 nM)”.
Same read-out and setting: the entry for B10 is “no binding (tested: 100 nM)”; for B3 it is “no binding (tested: 100 nM)”; for B4 it is “no binding (tested: 100 nM)”.

The target in a further experiment is T2, human MCP-2. In words: Biacore, IgG capture mode.
Turning to B9, the binding result was “no binding (tested: 100 nM)”.
As to B10, the binding result is on record as “no binding (tested: 100 nM)”.

In another experiment the target is T3, human Eotaxin 3. In words: Biacore, IgG capture mode.
B9: the binding result is given as “no binding (tested: 100 nM)”.
Same read-out and setting: the entry for B1 is “no binding (tested: 100 nM)”; for B2 it is “no binding (tested: 100 nM)”; for B10 it is “no binding (tested: 100 nM)”.
On the same count and under the same terms, the entry for B3 is “no binding (tested: 100 nM)”.
The same measure, in the same setting: the result for B4 reads “no binding (tested: 100 nM)”.

The target of the next experiment is T7, human MCP-4 (human, UniProt Q99616 24-98, limits assumed).
T7 construct: also called CCL13
T7 sequence (Q99616 24-98 limits assumed): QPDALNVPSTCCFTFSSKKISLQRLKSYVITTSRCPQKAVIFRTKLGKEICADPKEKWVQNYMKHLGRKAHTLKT
Nature of the experiment: Biacore, IgG capture mode.
With B9, the binding result is “no binding (tested: 100 nM)”.
Still for that read-out and setting: the entry for B1 is “no binding (tested: 100 nM)”; for B2 it is “no binding (tested: 100 nM)”; for B10 it is “no binding (tested: 100 nM)”.
For B3, the binding result was “no binding (tested: 100 nM)”.
Same read-out and setting: the result for B4 reads “no binding (tested: 100 nM)”.

In another experiment the target is T8, Human Monocyte Chemoattractant Protein-1 (MCP-1) (human, UniProt P13500 24-99, 125I label on the radioligand form; letters are the unlabelled wild-type protein).
T8 construct: also called CCL-2; CCL2
T8 sequence (P13500 24-99 limits assumed): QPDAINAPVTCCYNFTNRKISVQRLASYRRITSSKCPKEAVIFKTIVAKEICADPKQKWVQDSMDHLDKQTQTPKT
In words: 125I-MCP-1 binding to CCR2 on THP-1 cells, radioligand competition. On the technique in general: Displacement assays read how much labelled ligand stays bound in the presence of the test substance.
For B5, the IC50 (as a rule, the concentration needed to halve the response being measured) is 0.11 nM.
Same read-out and setting: the result for B1 reads 0.03 nM; that for B2, 0.05 nM.
Still for that read-out and setting: the result for B6 reads 0.18 nM.
Same read-out and setting: the figure for B7 is 0.16 nM; for B3 it is 0.05 nM; for B4 it is 0.02 nM.
B8: the IC50 was 0.13 nM.

The next experiment has as its target T5, human Eotaxin 1. Nature of the experiment: BIAcore.
Regarding B11, the binding result is reported as “no binding”.

For the next experiment, the target named is T1, human Eotaxin 2. In words: BIAcore.
As for B11, the binding result is on record as “no binding”.

For another experiment, the target named is T6, human MCP-3. Nature of the experiment: BIAcore.
Regarding B11, the binding result is “no binding”.

The target of a further experiment is T3, human Eotaxin 3. Nature of the experiment: BIAcore.
For the molecule B11, the binding result was “no binding”.

The target of the next experiment is T7, human MCP-4. In words: BIAcore.
Consider B11, for which the binding result was “no binding”.

The target in the next experiment is T4, cynomolgus monkey MCP-1. In words: BioVeris solution equilibrium titration, Fab, cyno MCP-1. Here is the method:
as §1, §2
For the molecule B5, the Kd – broadly, the free concentration of one partner at which half of the binding sites on the other are occupied at equilibrium, for simple one-to-one binding – was 0.32 nM.
For B7, the Kd worked out at 0.04 nM.
The same measure, in the same setting: the result for B8 reads 0.49 nM.

The target of another experiment is T8, Human Monocyte Chemoattractant …. In words: IGEN (BioVeris), MCP-1 Kd. As for the experimental part: as §1, §2
B5: binding was characterised by a dissociation constant (Kd) of 0.32 nM.
Still for that read-out and setting: the result for B1 reads 0.27 nM; that for B2, 0.34 nM.
The same measure, in the same setting: the figure for B6 is 0.03 nM; for B7 it is 0.04 nM; for B3 it is 0.01 nM.
Molecule B4 displayed a Kd of 0.02 nM.
For B8, the Kd was determined as 0.81 nM.

In the next experiment the target is T2, human MCP-2. Nature of the experiment: 125I-MCP-2 binding to CCR2 on Thp-1 cells, radioligand competition.
For the molecule B12, the concentration for half-maximal inhibition (IC50) is at least 2000 nM.

The target in another experiment is T8, Human Monocyte Chemoattractant …. In words: BioVeris solution equilibrium titration, Fab, rh MCP-1. Here is the method: as §1, §2
Consider B5, for which the affinity, expressed as Kd, was 0.32 nM.
In turn, B6 gave a Kd of 0.03 nM.
Still for that read-out and setting: the result for B7 reads 0.04 nM.
B8: the Kd came out at 0.81 nM.

The target is the same in another experiment. Nature of the experiment: BioVeris solution equilibrium titration, IgG1, rh MCP-1. Here is the method:
as §1, §2
As to B1, binding was characterised by a dissociation constant (Kd) of 0.27 nM.
On the same count and under the same terms, the result for B2 reads 0.34 nM; that for B3, 0.011 nM.
Same read-out and setting: the result for B4 reads 0.02 nM.

For a further experiment the target is unchanged. In words: cell-based or functional assay.
For the molecule B5, the “Inhibition of Ca2+ Mobilization IC50” value amounted to 20.2 nM.
Still for that read-out and setting: the figure for B1 is 6.7 nM; for B2 it is 5.85 nM; for B6 it is 21.8 nM.
Take B7: the “Inhibition of Ca2+ Mobilization IC50” value came out at 28.4 nM.
Take B3: the “Inhibition of Ca2+ Mobilization IC50” value turned out to be 9.47 nM.
Same read-out and setting: the figure for B4 is 10.9 nM.
On the same count and under the same terms, the figure for B8 is 17.5 nM.
